Where two headings read alike, the source gives them in different places. Values belong to the binder of their own block, whether it stands above or below them. Square brackets hold non-standard residues; d marks the D form. Ends that are not written are not given here. * marks the point of attachment. NMeF = CN[C@@H](Cc1ccccc1)C(=O)O; NMeL = CN[C@@H](CC(C)C)C(=O)O; Octanoyl = CCCCCCCC(=O)*; Ava = NCCCCC(=O)O; Octyl = CCCCCCCC*
Experiments:
[1] = target: T1, rat GHS-R (GHS receptor) expressed on CHO-GHSR62 cells (rat, UniProt O08725 1-364); assay: cell-based or functional assay
T1 sequence (O08725 whole entry): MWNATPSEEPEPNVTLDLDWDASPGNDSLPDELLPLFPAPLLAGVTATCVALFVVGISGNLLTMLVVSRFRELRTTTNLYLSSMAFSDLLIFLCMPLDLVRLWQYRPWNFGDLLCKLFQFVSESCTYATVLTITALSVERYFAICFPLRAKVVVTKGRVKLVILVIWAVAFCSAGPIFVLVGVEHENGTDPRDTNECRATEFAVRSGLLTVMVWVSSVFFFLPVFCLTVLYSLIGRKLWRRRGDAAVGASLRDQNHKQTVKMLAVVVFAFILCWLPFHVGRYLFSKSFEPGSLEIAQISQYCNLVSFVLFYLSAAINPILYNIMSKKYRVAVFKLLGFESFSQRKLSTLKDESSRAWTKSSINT

[2] = target: T1, rat GHS-R (GHS receptor) expressed on …; assay: cell-based or functional assay; remark: listed apart in the source
[3] = target: T1, rat GHS-R (GHS receptor) expressed on …; assay: cell-based or functional assay; remark: listed apart in the source
[4] = target: amino-terminal antibody (anti-[C-Cys]-rat ghrelin [1-11] antigen); assay: radioimmunoassay: inhibition of binding of radioisotope-labeled rat ghrelin to the amino-terminal antibody
[5] = target: T1, rat GHS-R (GHS receptor) expressed on …; assay: cell-based or functional assay; remark: listed apart in the source
[6] = target: T1, rat GHS-R (GHS receptor) expressed on …; assay: cell-based or functional assay; remark: listed apart in the source
[7] = target: T1, rat GHS-R (GHS receptor) expressed on …; assay: cell-based or functional assay; remark: listed apart in the source
[8] = target: T1, rat GHS-R (GHS receptor) expressed on …; assay: cell-based or functional assay; remark: listed apart in the source
[9] = target: T1, rat GHS-R (GHS receptor) expressed on …; assay: cell-based or functional assay; remark: listed apart in the source
[10] = target: T1, rat GHS-R (GHS receptor) expressed on …; assay: cell-based or functional assay; remark: listed apart in the source

Ca-releasing activity EC50 [1]: 2.5 nM
Ca-releasing activity EC50 [2]: 1.5 nM
EC50 value [3]: 1.5 nM
cross-reactivity [4]: 100%
Binder: GSS(Octanoyl)FLSPEHQKAQQRKESKKPPAKLQPR [rat ghrelin]

Activity EC50 [5]: 32 nM
Binder: GSK(Octanoyl)FLSPEHQRVQQRKESKKPPAKLQPR [[Lys^3(Octanoyl)]-hGhrelin]

Ca-releasing activity EC50 [6]: 42 nM
B1: [Leu^2]-Ghrelin (1-7)-amide (peptide)
peptide: GLS(Octanoyl)FLSP-NH2
modifications: N-terminus assumed
SMILES: CCCCCCCC(=O)OC[C@H](NC(=O)[C@H](CC(C)C)NC(=O)CN)C(=O)N[C@@H](Cc1ccccc1)C(=O)N[C@@H](CC(C)C)C(=O)N[C@@H](CO)C(=O)N1CCC[C@H]1C(N)=O

Ca-releasing activity EC50 [7]: 5.8 nM
B2: [Ser^3(Octyl)]-Ghrelin (1-7)-amide (peptide)
peptide: GSS(Octyl)FLSP-NH2
modifications: N-terminus assumed
SMILES: CCCCCCCCOC[C@H](NC(=O)[C@H](CO)NC(=O)CN)C(=O)N[C@@H](Cc1ccccc1)C(=O)N[C@@H](CC(C)C)C(=O)N[C@@H](CO)C(=O)N1CCC[C@H]1C(N)=O

Ca-releasing activity EC50 [7]: 2200 nM
Binder: GSS(Octyl)[dF]LSP-NH2 [[Ser^3(Octyl),^DPhe^4]-Ghrelin (1-7)-amide]

EC50 [1]: 86 nM
Activity EC50 [8]: 82 nM
Binder: [Ava]S(Octyl)[NMeF][NMeL]-NH2 [[N-Aminopentanoyl,Ser^3(Octyl),MePhe^4,MeLeu^5]-Ghrelin (3-5)-amide]

Ca-releasing activity (EC50, nM) [9]: 2.8 nM
Ca-releasing activity EC50 [10]: 1.5 nM
Binder: GSS(Octanoyl)FLSPEHQKAQRKESKKPPAKLQPR [rat ghrelin-27]

Ca-releasing activity EC50 [6]: 3.4 nM
B3: [N-Aminopentanoyl]-Ghrelin (3-7)-amide (peptide)
peptide: [Ava]S(Octanoyl)FLSP-NH2
modifications: N-terminus assumed
SMILES: CCCCCCCC(=O)OC[C@H](NC(=O)CCCCN)C(=O)N[C@@H](Cc1ccccc1)C(=O)N[C@@H](CC(C)C)C(=O)N[C@@H](CO)C(=O)N1CCC[C@H]1C(N)=O

Ca-releasing activity EC50 [6]: > 10000 nM
Binder: Ac-GSS(Octanoyl)FLSPEHQ [[N-Acetyl]-Ghrelin (1-10)]

Ca-releasing activity EC50 [7]: > 10000 nM
Binder: GS[dS](Octyl)FLSP-NH2 [[^DSer^3(Octyl)]-Ghrelin (1-7)-amide]

Ca-releasing activity EC50 [7]: > 10000 nM
Binder: GS[dS](Octyl)[dF]LSP-NH2 [[^DSer^3(Octyl),^DPhe^4]-Ghrelin (1-7)-amide]

Ca-releasing activity (EC50, nM) [9]: > 10000 nM
Ca-releasing activity EC50 [10]: > 10000 nM
Binder: KESKKPPAKLQPR (not fully specified) [Ghrelin (16-28)]

— US20090170763A1 (KENJI KANGAWA, published 2009)
